The numbers were not newly measured in paper doi:10.1101/2022.08.17.503475, which cites them from elsewhere.

The target in the data set is Glu14 (UniProt position 14, GAILAEVIGTT). As to the kind of experiment: NMR. The following applies: TPP+-bound; alternating access in slow exchange throughout the tested pH range.

On to “EmrE (multidrug transporter EmrE, small multidrug resistance family) (Escherichia coli)”, for which the pKa – broadly, the pH at which an ionisable group is half protonated – is reported as 6.8 ± 0.1.
